Results taken from IntAct's records for PubMed 29040270.

B1: Rho-related GTP-binding protein RhoE (Homo sapiens), P61587 (parent)
chain: MKERRASQKLSSKSIMDPNQNVKCKIVVVGDSQCGKTALLHVFAKDCFPENYVPTVFENYTASFEIDTQRIELSLWDTSGSPYYDNVRPLSYPDSDAVLICFDISRPETLDSVLKKWKGEIQEFCPNTKMLLVGCKSDLRTDVSTLVELSNHRQTPVSYDQGANMAKQIGAATYIECSALQSENSVRDIFHVATLACVNKTNKNVKRNKSQRATKRISHMPSRPELSAVATDLRKDKAKSCTVM

Experiments:
[1] = variants of: B1; conditions: with plxb1_human PLXNB1, O43157
[2] = variants of: B1; conditions: with plxb2_human PLXNB2, O15031
Sequence of plxb2_human PLXNB2, O15031 (O15031 whole entry): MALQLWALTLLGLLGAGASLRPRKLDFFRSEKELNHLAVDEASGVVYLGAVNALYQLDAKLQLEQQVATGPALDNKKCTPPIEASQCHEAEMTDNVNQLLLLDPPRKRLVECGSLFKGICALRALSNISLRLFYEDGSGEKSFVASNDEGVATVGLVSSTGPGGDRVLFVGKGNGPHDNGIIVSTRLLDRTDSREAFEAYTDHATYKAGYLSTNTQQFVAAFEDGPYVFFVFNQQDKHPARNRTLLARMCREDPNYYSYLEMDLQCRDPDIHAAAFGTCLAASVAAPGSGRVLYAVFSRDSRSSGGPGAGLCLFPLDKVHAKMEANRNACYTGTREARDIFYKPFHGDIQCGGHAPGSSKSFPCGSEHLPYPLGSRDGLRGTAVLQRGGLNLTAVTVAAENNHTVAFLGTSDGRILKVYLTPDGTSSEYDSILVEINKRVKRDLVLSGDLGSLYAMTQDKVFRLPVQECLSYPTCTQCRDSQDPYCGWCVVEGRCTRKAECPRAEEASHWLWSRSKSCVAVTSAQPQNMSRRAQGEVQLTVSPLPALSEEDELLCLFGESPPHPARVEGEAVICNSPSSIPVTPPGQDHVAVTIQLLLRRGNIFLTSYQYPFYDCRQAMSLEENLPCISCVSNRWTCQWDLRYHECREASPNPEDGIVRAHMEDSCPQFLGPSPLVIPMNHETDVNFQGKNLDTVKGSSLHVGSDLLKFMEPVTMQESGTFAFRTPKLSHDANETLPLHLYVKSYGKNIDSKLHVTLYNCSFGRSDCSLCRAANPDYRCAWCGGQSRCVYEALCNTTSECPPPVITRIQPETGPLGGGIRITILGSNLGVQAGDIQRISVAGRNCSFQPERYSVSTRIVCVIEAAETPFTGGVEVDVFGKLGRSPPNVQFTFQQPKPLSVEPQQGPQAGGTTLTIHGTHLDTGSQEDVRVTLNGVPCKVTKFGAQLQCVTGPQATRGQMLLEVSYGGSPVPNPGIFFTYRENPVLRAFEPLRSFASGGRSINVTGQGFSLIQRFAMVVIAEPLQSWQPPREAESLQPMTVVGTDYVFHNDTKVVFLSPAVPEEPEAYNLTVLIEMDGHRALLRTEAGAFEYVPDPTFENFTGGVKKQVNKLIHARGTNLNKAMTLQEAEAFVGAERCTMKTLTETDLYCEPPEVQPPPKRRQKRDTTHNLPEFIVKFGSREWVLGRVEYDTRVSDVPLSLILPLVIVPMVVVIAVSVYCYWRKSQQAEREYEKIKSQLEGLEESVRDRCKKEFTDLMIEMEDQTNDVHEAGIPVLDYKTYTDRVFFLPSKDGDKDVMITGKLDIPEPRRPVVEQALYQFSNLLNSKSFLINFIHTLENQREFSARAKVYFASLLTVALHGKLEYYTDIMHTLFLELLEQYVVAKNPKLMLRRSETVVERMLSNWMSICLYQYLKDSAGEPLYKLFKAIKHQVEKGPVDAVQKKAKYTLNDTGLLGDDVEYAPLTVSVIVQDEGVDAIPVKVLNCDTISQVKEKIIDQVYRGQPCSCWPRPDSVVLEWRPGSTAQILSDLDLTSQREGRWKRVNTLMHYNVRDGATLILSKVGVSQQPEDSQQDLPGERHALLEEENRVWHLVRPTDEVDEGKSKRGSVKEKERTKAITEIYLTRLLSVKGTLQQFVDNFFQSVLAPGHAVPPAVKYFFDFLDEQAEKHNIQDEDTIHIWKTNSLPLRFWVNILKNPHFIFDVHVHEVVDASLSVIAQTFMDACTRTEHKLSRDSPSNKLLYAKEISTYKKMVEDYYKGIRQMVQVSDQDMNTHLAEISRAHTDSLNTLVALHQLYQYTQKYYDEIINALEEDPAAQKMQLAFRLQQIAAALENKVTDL

Sequence of plxb1_human PLXNB1, O43157 (O43157 whole entry): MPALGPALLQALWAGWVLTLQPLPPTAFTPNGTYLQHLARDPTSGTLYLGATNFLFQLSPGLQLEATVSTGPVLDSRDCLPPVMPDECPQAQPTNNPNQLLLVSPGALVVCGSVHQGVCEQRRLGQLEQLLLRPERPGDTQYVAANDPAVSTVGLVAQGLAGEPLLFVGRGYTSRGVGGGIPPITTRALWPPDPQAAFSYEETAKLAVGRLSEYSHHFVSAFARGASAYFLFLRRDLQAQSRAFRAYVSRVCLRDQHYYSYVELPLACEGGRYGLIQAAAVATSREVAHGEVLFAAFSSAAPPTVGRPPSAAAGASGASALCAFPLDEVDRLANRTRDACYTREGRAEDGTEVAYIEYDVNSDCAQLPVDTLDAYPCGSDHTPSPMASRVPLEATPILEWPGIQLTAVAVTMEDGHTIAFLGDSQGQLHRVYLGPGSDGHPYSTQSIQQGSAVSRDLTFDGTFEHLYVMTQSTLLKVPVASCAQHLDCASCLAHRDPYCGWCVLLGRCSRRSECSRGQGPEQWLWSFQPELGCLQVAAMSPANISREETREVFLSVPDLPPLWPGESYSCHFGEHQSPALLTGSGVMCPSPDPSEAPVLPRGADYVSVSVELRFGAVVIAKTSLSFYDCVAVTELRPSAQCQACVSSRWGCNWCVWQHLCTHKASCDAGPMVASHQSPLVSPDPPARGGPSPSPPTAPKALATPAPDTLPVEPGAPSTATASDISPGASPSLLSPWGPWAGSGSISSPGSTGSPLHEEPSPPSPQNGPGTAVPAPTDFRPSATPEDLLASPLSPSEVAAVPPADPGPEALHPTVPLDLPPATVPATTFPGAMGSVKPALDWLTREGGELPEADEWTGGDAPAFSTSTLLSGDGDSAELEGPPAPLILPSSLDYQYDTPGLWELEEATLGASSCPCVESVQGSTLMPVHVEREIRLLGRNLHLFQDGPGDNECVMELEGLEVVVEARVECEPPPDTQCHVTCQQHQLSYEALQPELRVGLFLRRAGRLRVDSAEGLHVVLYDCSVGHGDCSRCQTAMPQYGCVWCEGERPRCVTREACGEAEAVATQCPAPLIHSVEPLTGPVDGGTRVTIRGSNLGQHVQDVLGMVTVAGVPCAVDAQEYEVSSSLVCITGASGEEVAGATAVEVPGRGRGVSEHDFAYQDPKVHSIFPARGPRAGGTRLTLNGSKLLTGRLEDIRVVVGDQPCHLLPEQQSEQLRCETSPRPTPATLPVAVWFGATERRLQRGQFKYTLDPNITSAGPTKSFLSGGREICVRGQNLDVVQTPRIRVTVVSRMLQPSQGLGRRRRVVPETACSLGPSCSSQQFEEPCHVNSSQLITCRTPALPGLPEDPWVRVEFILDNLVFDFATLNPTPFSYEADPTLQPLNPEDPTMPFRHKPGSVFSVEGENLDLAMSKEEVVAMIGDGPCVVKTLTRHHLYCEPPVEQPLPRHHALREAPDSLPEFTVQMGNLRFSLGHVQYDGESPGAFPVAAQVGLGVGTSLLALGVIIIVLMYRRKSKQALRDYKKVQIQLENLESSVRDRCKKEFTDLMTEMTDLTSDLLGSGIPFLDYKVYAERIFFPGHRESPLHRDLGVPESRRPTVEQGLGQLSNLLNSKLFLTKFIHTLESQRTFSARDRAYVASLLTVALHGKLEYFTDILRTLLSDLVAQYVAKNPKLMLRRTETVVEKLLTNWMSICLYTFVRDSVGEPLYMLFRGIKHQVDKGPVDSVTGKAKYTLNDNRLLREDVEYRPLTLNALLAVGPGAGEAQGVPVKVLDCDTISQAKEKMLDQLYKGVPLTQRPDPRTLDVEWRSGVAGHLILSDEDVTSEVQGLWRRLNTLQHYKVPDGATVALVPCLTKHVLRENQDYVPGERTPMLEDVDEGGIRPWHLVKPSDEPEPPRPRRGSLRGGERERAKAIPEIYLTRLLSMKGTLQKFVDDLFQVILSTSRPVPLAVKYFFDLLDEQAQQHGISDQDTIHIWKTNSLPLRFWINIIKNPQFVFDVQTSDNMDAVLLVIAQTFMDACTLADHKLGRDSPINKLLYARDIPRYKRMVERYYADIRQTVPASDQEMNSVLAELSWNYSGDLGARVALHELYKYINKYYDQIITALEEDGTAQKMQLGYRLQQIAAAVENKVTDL

Variant	effect of a mutation on the interaction [1]	effect of a mutation on the interaction [2]
Y60A	with no effect	with no effect
F124Y	with no effect	with no effect
V87R	disrupting interaction strength	disrupting interaction strength
L90R	disrupting interaction strength	disrupting interaction strength
N86R	with no effect	with no effect
